Assay results: the supplement of paper PMC7877785
± gives the uncertainty stated by the source.

Assay: self-splicing fitness, log relative to wild type (ln ratio); higher = more splicing; Tetrahymena group I intron in knt gene, E. coli kanamycin selection, DiMSum; sequences stand for … in CUCUCU…GGAGGGAAAAGUUAUCAGGCAUGCACCUGGUAGCUAGUCUUUAAACCAAUAGAUUGCAUCGGUUUAAAAGGCAAGACCGUCAAAUUGCGGGAAAGGGGUCAACAGCCGUUCAGUACCAAGUCUCAGGGGAAACUUUGAGAUGGCCUUGCAAAGGGUAUGGUAAUAAGCUGACGGACAUGGUCCUAACCACGCAGCCAAGUCCUAAGUCAACAGAUCUUCUGUUGAUAUGGAUGCAGUUCACAGACUAAAUGUCGGUCGGGGAAGAUGUAUUCUUCUCAUAAGAUAUAGUCGGACCUCUCCUUAAUGGGAGCUAGCGGAUGAAGUGAUGCAACACUGGAGCCGCUGGGAACUAAUUUGUAUGCGAAAGUAUAUUGAUUAGUUUUGGAGUACUCGUGGUCG
Procedure, shortened: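 Library with all eight P1ex-region intron nucleotides randomised, intron inside the knt kanamycin-resistance gene on pET-22b(+), in E. coli BL21(DE3). Cells grew overnight at 37°C or 30°C on LB agar with or without 25 μg/mL kanamycin (plus 100 μg/mL carbenicillin, 50 μM IPTG, 0.2% rhamnose), in six replicate transformations. Pooled colonies were amplicon-sequenced on Illumina HiSeq 2500. DiMSum fitness is the error-weighted combination of wild-type-normalised replicate fold changes, kanamycin versus none.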

| Sequence | self-splicing fitness (ln) (30 °C) | self-splicing fitness (ln) (37 °C) |
| --- | --- | --- |
| CCGUAGCAAUAUUACGCAAC | -4.04 ± 0.26 | -2.13 ± 0.21 |
| CCGUAGCAAUAUUACGCACA | -3.79 ± 0.31 | -1.44 ± 0.36 |
| CCGUAGCAAUAUUACGCGCU | -3.4 ± 0.4 | -1.57 ± 0.3 |
| CCGUAGCAAUAUUACGCUGA | -2.87 ± 0.31 | -2.06 ± 0.28 |
| CCGUAGCAAUAUUACGCUUA | -3.52 ± 0.45 | -1.7 ± 0.35 |
| CCGUAGCAAUAUUACGGAGU | -2.68 ± 0.16 | -2.33 ± 0.22 |
| CCGUAGCAAUAUUACGGAUG | -3.56 ± 0.3 | -2.11 ± 0.23 |
| CCGUAGCAAUAUUACGGCUU | -3.06 ± 0.35 | -3.06 ± 0.43 |
| CCGUAGCAAUAUUACGGUAU | -4.05 ± 0.21 | -2.85 ± 0.2 |
| CCGUAGCAAUAUUACGGUGU | -3.66 ± 0.17 | -1.85 ± 0.11 |
| CCGUAGCAAUAUUACGUAGA | -3.28 ± 0.22 | -1.41 ± 0.13 |
| CCGUAGCAAUAUUACGUCCG | 0.211 ± 0.094 | 0.319 ± 0.11 |
| CCGUAGCAAUAUUACGUCGG | -3.57 ± 0.17 | -3.02 ± 0.23 |
| CCGUAGCAAUAUUACGUGCU | – | -1.98 ± 0.19 |
| CCGUAGCAAUAUUACGUGGA | -3.1 ± 0.32 | -2.84 ± 0.21 |
| CCGUAGCAAUAUUACGUGUA | -3.5 ± 0.2 | -3.25 ± 0.29 |
| CCUAAGCAAUAUUACGACAU | -3.909 ± 0.025 | -2.82 ± 0.038 |
| CCUAAGCAAUAUUACGAGGU | -4.68 ± 0.25 | -3.38 ± 0.18 |
| CCUAAGCAAUAUUACGAUCA | -3.57 ± 0.28 | -3 ± 0.25 |
| CCUAAGCAAUAUUACGAUCU | -3.39 ± 0.35 | -3.07 ± 0.28 |
| CCUAAGCAAUAUUACGCAAA | -3.38 ± 0.36 | -1.76 ± 0.3 |
| CCUAAGCAAUAUUACGCAGC | -3.07 ± 0.29 | -2.46 ± 0.24 |
| CCUAAGCAAUAUUACGCAGU | -3.23 ± 0.19 | -1.76 ± 0.19 |
| CCUAAGCAAUAUUACGCUCC | -4.01 ± 0.46 | -2.97 ± 0.29 |

| Sequence | self-splicing fitness (ln) (30 °C) | self-splicing fitness (ln) (37 °C) |
| --- | --- | --- |
| CCUAAGCAAUAUUACGGACA | -1.7 ± 0.31 | -2.24 ± 0.31 |
| CCUAAGCAAUAUUACGGCAU | -3.48 ± 0.22 | -1.98 ± 0.19 |
| CCUAAGCAAUAUUACGGCGC | -3.12 ± 0.29 | -3.22 ± 0.33 |
| CCUAAGCAAUAUUACGGGCA | -3.62 ± 0.25 | -2.85 ± 0.24 |
| CCUAAGCAAUAUUACGUAAG | -0.318 ± 0.064 | -0.35 ± 0.087 |
| CCUAAGCAAUAUUACGUGCU | -3 ± 0.24 | -2.55 ± 0.36 |
| CCUAAGCAAUAUUACGUUCG | -2.38 ± 0.091 | -2.02 ± 0.11 |
| CCUCAGCAAUAUUACGAAUA | -1.54 ± 0.2 | -2.78 ± 0.4 |
| CCUCAGCAAUAUUACGACAG | -1.06 ± 0.066 | -0.262 ± 0.079 |
| CCUCAGCAAUAUUACGACGG | -2.74 ± 0.18 | -1.64 ± 0.27 |
| CCUCAGCAAUAUUACGACUG | -3.09 ± 0.23 | -2.76 ± 0.21 |
| CCUCAGCAAUAUUACGAGAU | -3.32 ± 0.18 | -3.16 ± 0.24 |
| CCUCAGCAAUAUUACGAGUC | -3.88 ± 0.34 | -2.27 ± 0.26 |
| CCUCAGCAAUAUUACGAUAG | -0.572 ± 0.067 | -1.24 ± 0.1 |
| CCUCAGCAAUAUUACGCAUA | -2.47 ± 0.17 | -2.19 ± 0.17 |
| CCUCAGCAAUAUUACGCCAC | -3.18 ± 0.36 | -2.12 ± 0.41 |
| CCUCAGCAAUAUUACGCCUG | -2.38 ± 0.081 | -1.72 ± 0.11 |
| CCUCAGCAAUAUUACGCGCG | -2.78 ± 0.13 | -1.45 ± 0.13 |
| CCUCAGCAAUAUUACGCUGG | -2.55 ± 0.12 | -2.41 ± 0.17 |
| CCUCAGCAAUAUUACGGAGA | -2.8 ± 0.18 | -1.4 ± 0.15 |
| CCUCAGCAAUAUUACGGAUC | – | -1.41 ± 0.22 |
| CCUCAGCAAUAUUACGGGGC | -3.68 ± 0.14 | -2.98 ± 0.19 |
| CCUCAGCAAUAUUACGGGGU | -3.88 ± 0.15 | -3.49 ± 0.2 |
| CCUCAGCAAUAUUACGGUAG | -0.514 ± 0.05 | -0.195 ± 0.067 |
